Publication PMC3719477 (ACS Chemical Biology, 2013)

Target: KIX domain (residues 586–672) of human CREB binding protein (CBP) (human, UniProt Q92793 586-672)
Assay: NMR solution structure

KIX domain (residues 586–672) of human CREB binding protein (CBP), sequence (Q92793 586-672): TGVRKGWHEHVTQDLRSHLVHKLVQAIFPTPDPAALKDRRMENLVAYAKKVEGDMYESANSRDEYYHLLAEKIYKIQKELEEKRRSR

B1: activation domain of mixed-lineage leukemia (MLL), residues 2840–2858, with C2841 substituted with alanine (peptide, UniProt Q03164 2840-2858, looked up)
chain: DAGNILPSDIMDFVLKNTP
**Q.** Does B1 bind?
**A.** binds
